Data published in the nanobody polyreactivity screen of Harvey et al. (2022).

Experiment: yeast display, Sf9 membrane polyspecificity reagent, FACS + sequencing; frameworks hold sequencing errors
Method in brief: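 Genes from sorted yeast were amplified by colony PCR, read by MiSeq 2 × 250 sequencing and filtered on CDR length. These cells carried a synthetic nanobody library in Saccharomyces cerevisiae BJ5465 and were sorted by FACS into low and high (top ~1%) gates on anti-HA and streptavidin fluorescence. Polyreactivity is labelled according to the gate of origin.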

Row | Sequence | polyreactivity (PSR sort gate)
1 | QVQLVESGGGLVQAGGRLRLSCAAYGSIFDFYAMGWYRQAPGKERELVAAISGSGGSTYYADSVKGRFTISRDNAKNTVYLQMNSLKPEDTEVYYCSYYYWGQGTQETVSS | low polyreactivity
2 | QGQLVESGGGLVQAGGSLRLSCAASGSILLYYAMGWYRQAPGKEWELVAAITGGGGTNYADAGKGRFTISRDNAKNTVYLQMNSLIPEDTAVYYCAADPSGQFPYSYYNYDYDYWGQGTQVTVSS | low polyreactivity
3 | QVQLVESGGGLVQAGGSLRLICAASGFTFAGYAMGWYRQARGKDRELVAGIRSSGARTYYADSVKGRFTISRDNAKNTVYIQMNSLKPEDTAVYYCAKTDGFYRGYGYWGQGTQVTVSS | low polyreactivity
4 | QVQLVESGGGLVQAGRSIRLSCAASGSTFAKYAMGWYRQAPAKERELVAAISSSGSRTYYADSVKGRFTISRDYAKNTVYLQMNILKTEDTAVYYCAALIVKPGGRVYYGGQGTQVTVSS | high polyreactivity
5 | QVHLVESGGGLVQAGGSLRLSCAASGSTFYYNAMGWYRQAPGKERELDAAITFTGGSTYADSVKGRFTISRDNAKNTVYLQMNSLKPEDTAVYYCAAESLISWRYDYWGQGTQVTVSS | low polyreactivity
6 | QVQLVESGGGLVQAGGSLRLSCAASGITFYDYAMGWSRQAPGKDRELVSAINSSGVRTYYADSVKGRFTISRDNAKNTVYLQMNSLKPEDTAVYYCAAERYYYFVPYWYDYWGQGTQVTVSS | high polyreactivity
7 | QVQLVESGGGLVQAGGSLRLSCAASGSIFWINAMGWYRQAPGKERELVADIDVSGGSTYYADSVKGRFTISRDNAKNTVYLQMNSLKPEDTAVYYCAADDYWAYLYYKTSEYDYWGQGTQVTVSS | low polyreactivity
8 | QVQLVESGGGLVQAGGSLRLSCAASGNIFSRNAMGWYRQAPGKERELVASIRWSGGSTYADSVKGRFTISRDNAKNTVYLQMNSLKPEDTAVYYCAADSLHGRKFRGVDYWGQGTEVTVSS | low polyreactivity
9 | QDQLVESGGGLVQAGGRLRLSCAASGSTFLRYAMGWYRQAPGKERELVAAINLSGDRTYYADSVKGRFTISRDKAKNTFYLQMHSLKPEDTAVYYCAARWWGPSYDAYDYWGQGTQVTVSS | low polyreactivity
10 | QVQLVESGGGLVQAGGSLRLSCAASGFTFRYNAMGWYRQAPGKERELVATISWRGTSTYYADSVKGRFTISRDNAKNTVYLQMNSLKPEDTAVYYCAALGTVGYDYWGQGTQVTVSS | low polyreactivity
11 | QVQVVESGGGLVQAGGSLRLSCAASGSTFYRYAMGWYRQAPGKERELVAAITRGGGRTYYADSVKGRFTISRDHAKNTVYLQMNSLKPEDSAVYYCNAASPYYDSWGQGTQVTVSS | high polyreactivity
12 | QVQLVESRGGLVQAGGSLRLSCAASVSTFSDYSIGWYRQATGKERELVAGITGGGGTYYADSVKGRFTISRDNAKNTVYLQMNSLKPEDTAVYYCAAGRRHGFGYWGQGTQVTVSS | low polyreactivity
13 | QVQLVESGGGLVQAGGSLRLSCAASGITFVYYDMGWYRQAPGKERELVAAISSGGSTYYADSVKGRFTISRDNAKNNVYLQMNRLKPEDTAVYYCAAKISSNYHIGGDDYWGQGTQVTVSS | high polyreactivity
14 | QDQHVESGGGLVQAGGSLRLSCAASGGNYAGYAMGWYRQAAGKARELVAAISWRGTSTYYADSVKGRFTISRDNAKNTVYLELNSLKPEDTAVYYCAAEAASWWGYGYWGQGTQVTVSS | high polyreactivity
15 | EEELVESGGGLVQAGGSLRLSCAASGRTFARNAMGWYRQAPGKERELVAGINFSGGNTYYADSVKGRFTISRDNAKNTVYLQMNSLKPEDTEVYYCAPRRYWEGDYWGQGTQVTVSS | low polyreactivity
16 | QVQLVESGGCLVQAGGSLRLSCAASGFTFRYYAMGWYRQAPGKERELVASITGHGGSTYYADSVKGRFTISRDNAKNTVYLQMKSLKPEDTAVYYCNARVRGYYEYNYWGQGTQVTVST | high polyreactivity
17 | QVQLVESGGGLVQAGGSLRLSCAASGSTLDRNTMGWYRQAPGKERELVAAITSSGGRTYYADSVKGRFTISRDNEKNTVYFQMNSLKPDDTAVYYCNNDYWKRPVDEYDYWGQGTQVTVSS | high polyreactivity
18 | QVQLVESGGGLVQAGGSLRLSCAASGSIFGKNAMGWYRQAPGKDRELVAAISWSGGRTYYADSVKGRFTISRDNAKNSVYLQMNSLKPEDTAVYYCAASWWGVARGSSRKKYDYWGQGTQVTVSS | high polyreactivity
19 | QVQLVESGGGLVQAGGSLRLSCAASGRIFVGDAMGWYRQAPGTERELVAAISRDGDNTFYADSVKGRFTISRDNAKNTVYLQMNSLKPEDTAVYYCAVDYWVWYGSAYAYDYYWGQGTQVTVSS | low polyreactivity
20 | QVQLVESGGGLVQAGGSLRLSCAASGRIFDNYVMGWYRQAPGKERELVAAISSGGGTYYADSVKGRFTISRDNAKNTVYLQMNSLKPEDTAVYYCAKRRVYDRSFGRYDYWGQGTQVTVSS | low polyreactivity
21 | QVQLVESGGGLVQAGGSLRLSCAASGFTFFLYAMGWYRQAPGKEMELVAAIHSRGGSTYYADSVKGRFTISRDNAKNTVSLQMNSLKPEDTAVYYCAAYIPRSSWGYDYWGQGTQVTVSS | high polyreactivity
22 | QVQLVESGGGLVQAGGSLRLSCAASGRTLRGYAMGWYRQAPGKERELVAAITWSGGSTYYADSVKGRFTISRDNAKNTVYLQMNSLKPEDTAVYYCNARSYPDLYDYWGQGTQVTVSS | low polyreactivity

Row | Sequence | polyreactivity (PSR sort gate)
23 | QVQLVESGGGLVQAGGSLRLSCAASGSIFLNYAMGWYRQAPGKERELVAAISYRVGRTYYADSVKGRFTISRDNAKNTVYLQMNSLKPVDTAVYYCAADSRSPGNDYWGQGTQVTVSS | high polyreactivity
24 | QVQLVESGGGLVQAAGSLRLSSAASGYTFYINAMGSYRQAPGKERELVATIRRRGGSTYYADSVKGRFTISRDNAKNTVYLQMNSLKPEDTAVYYCNADTLGGKYVYQYRRGFDYWGHGTQVTVSS | high polyreactivity
25 | QDQHVESGGGLVQAGGSLRLSCAASGRISKRNVMGWYRPAPGKERELVACISSTGSTSYADSVKGRFTISRDNAKYTVYLQMNSLNPEDTAVYYCAARGQATYNWGQGTQVTVSS | high polyreactivity
26 | QVELVESGGGLVQAGGSLRLSCAASGFTFNGTAMGWYRQAPGKDRELVAAMSRGGSPSYADSVKGRFTISRDNAKKTVYLPMNSLKPEATAVYYCAAVSYGRFRRYEYWVQGTQVTVSS | high polyreactivity
27 | QVQLVESGGGLVQAGGILRLSCAASGSTFDINTMGWYRQAPGKEREFVAAITDSDDSTYYADSVKGRFTISRDHAKNTVYLLMNSLKPEDTAVDYCNYDYWGQGTQVTVAS | low polyreactivity
28 | QVQLVESGGGLVQAGGSLRLSCAASGIIFSLYAMGAYIQATGKERELVAAITTGGRTYYADSVKGRFTISRDNAKYSVYLQMNSLKPEDTAVYYCAALGPWQGGTTLSTNRGYWGQGTQVTVSS | high polyreactivity
29 | QVQLVESGGGLVQAGGSLRLSCAASGSIFRRYAMGWYRQAPGKEREFVAAITRSGGGTYYADSVKGRFTISRDNAKNTVYLQMNSLKPEDTAVYYCAKDVFVQRSRYPEGDYWGQGTQVTVSS | high polyreactivity
30 | QVQLVESGGGLVQAGGSLRLSCAASGRTFGYTMGWYRQAPGKERELVAAITRSVTTYYADSVKGRFTISRDNAKNTVYLQMNSLKPEDTAVYYCAAVNTLREMYWGQGTQVTVSS | high polyreactivity
31 | QVQLVESGGGLVQAGCSLRLSCAASGSIFAVYAMGWYRQATGKERELVAAISWSVGSTYYADSVKGRFTISRDHAKNTVYFQMNSLKPEDTAVYYCAAELAYYLDYVEYFTEIDLEGYWGQGTQVTVSS | low polyreactivity
32 | QFQLVESGGGLVQAGGSLRLSCAASGSICVLYPMGWYRQAPGKERELVAAITSGASTNYADSVKGRFTISRDNAKNTVYLQMNSQKPEDTAVYYCNTGSRLDRVDSWGQGTQLTVSS | low polyreactivity
33 | QVQLVESGGGLVQAGGSLRLSCAASGIIFGYYAMGWYRQATGKERELVAAINGRTGSTYYADSVKGRFTISRDNAKNTVYLQMNSLKPEDTAVYYCTAQSYKFHGDYWGQGTQVTVSS | high polyreactivity
34 | QVQLVESGGGLVQAGGSLRLSCAAYGRIFAPNAMGWYRQAPGKERELVATISWSGGSTYYADSVNGRFTISRDNSKNYVYLQMNSLKPEDTAVYYCAGSNYQYGVISYDYWGKGTQVTVSS | low polyreactivity
35 | QVQLVESGGGLVQAGGSLRLSCAASGGTFRGYVMGWYIQAPGKERELVAAISYSGGTTYYADSVKGRFTISRDNAKNTVYLQMNSLKPEDTAVYYCNKGYRRYEDGATPGYGYWGQGTQVTVSS | high polyreactivity
36 | QVQLVESGGGLVQAGGSLRLSCAASGLTFNFYAMGWYRQAPGKEREFVAAISRSGGSTHYADSVKGRFTISRDNAKYTVYLQMNSLKPEDTAVYYCAADGGRKNYDYWGQGTQVTVSS | high polyreactivity
37 | QVQLVESGGGLVQAGGSLRLSCAASGSTFRYNVMGWYRQAPGKERELVATISYSGGSTNYADSVKGRFTISRDNAKNSVYLEIKSLKPVDTAVYYCAARYLYPFYGYWWYDYWGQGTQVTVSS | high polyreactivity
38 | QVQLVESGGRLVQAGGSLRLSCAASGFIISFNAMGWYRQATGKERELVATISGGGGSTYYADSVKGRFTISRDKAKNTVYLQMKSLKPEDTAVYYCAKSYRYRGDYWGQGTQVTVSS | high polyreactivity
39 | QVQLVESGGGLVQAGGSLRLSCAASGSIFDDYAMGWYRQAPGKERELVAAISSSGTSTYYADSVKGRFTISRDNAKNTVYLQMNSLKPEDTAVYYCAKYAGVYEYDYWGQGTQVTVSS | low polyreactivity
40 | QVQLVESGGGLVQAGGSLRLSCAACGFTFTIYAMGWYRQAPGKERELVATISGRAGRTYYADSVKGRFTISRDNAKNTVYLQMNSLKPEDTAVYYCTAGQWRYPGLYYYWGQGTQVTVSS | high polyreactivity
41 | QVQLVESGGGLVQAGGSLRLSCAASGRTFYRNAMGWSRQAPGKERELVAAISSTGSTYYAESVKGRFTSSRDNAKNTVYLQMNSLKPEDTAVYYCARGVHGIFGYLGQGTQVTVSS | low polyreactivity
42 | QVQLVESGGGLVQAGGSLRLSCAASGSIFGYYALGWYRQAPGKERELVAAITSVGSTYYADSVKGRFTISRDNAKKTVSLQMNSLKPEDTAVYYCATRFWFRSLRSSYYYWGQGTQVTVSS | high polyreactivity
43 | QVQLVESGGGLVQAGGSLRLSCAASGSISSQYGMGWYRQAPGKERELVATIRDGGRTNYADSVKGRFTISRDNAKNTVYLQMNCLKPEDTAVYYCAALYWYYYTWPLYDYWGQGSQVTVSS | low polyreactivity
